Test [1] deals with T1, human Trop-2 (human, UniProt P09758 27-323).
T1 construct: whole, on cells; Type-I transmembrane glycoprotein; also called EGP-1; epithelial glycoprotein-1
T1 sequence (looked up): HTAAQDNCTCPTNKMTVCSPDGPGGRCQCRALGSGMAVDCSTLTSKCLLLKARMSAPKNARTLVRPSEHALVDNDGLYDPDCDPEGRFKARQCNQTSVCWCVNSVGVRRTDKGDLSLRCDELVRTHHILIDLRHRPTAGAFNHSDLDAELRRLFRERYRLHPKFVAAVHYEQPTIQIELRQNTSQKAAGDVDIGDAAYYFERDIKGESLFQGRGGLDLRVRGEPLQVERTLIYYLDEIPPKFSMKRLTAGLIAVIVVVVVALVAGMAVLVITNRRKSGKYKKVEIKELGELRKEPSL
Kind of test: cell binding assay on Trop-2-expressing cells (cell line not stated).

Test [2] has as its target T1, human Trop-2. Kind of test: cell binding on NCI-N87 cells, anti-mouse-HRP secondary, luminescence, 0.03 to 66 nM, 4 C.

In test [1], hRS7-CL2-SN-38 (antibody) registered a Kd of 1.2 nM.
On to hRS7-CL2A-SN-38 (antibody), for which the dissociation constant (Kd) in test [1] was found to be 1.2 nM.

B1: murine RS7 (antibody, V domains shown)
VH: VKLQESGPELKKPGETVKISCKASGYTFTNYGMNWVKQAPGKGLKWMGWINTYTGEPTYTDDFKGRFAFSLETSATTAYLQINNLKSEDMATYFCARGGFGSSYWYFDVWGQGTTVTVSS
VL: DIQLTQSHKFMSTSVGDRVSITCKASQDVSIAVAWYQQKPGQSPKLLIYSASYRYTGVPDRFTGSGSGTDFTFTISSVQAEDLAVYYCQQHYITPLTFGAGTKLELK
B1: binding in test [2] was characterised by a dissociation constant (Kd) of 0.57 nM. That is a sub-nanomolar value.

(Values after patent publication US20140377287A1 (published 2014).)
